According to the RNAGym collection of RNA variant scans (doi:10.1073/pnas.2313332121):

B1: TPR t1 (parent)
chain: GACCAAUCUGCCCUCAGAGCUCGAGAACAUCUUCGGAUGCAGAGGAGGCAGGCUUCGGUGGCGCGAUAGCGCCAACGUCCUCAACCUCCAAUGCAUCCCACCACAUGAUGAUGCCUGAAGAGCCUUGGUUUUUUG

Variants of: B1
Assay: polymerase ribozyme fitness, log enrichment relative to wild type (log ratio); higher = more active; in vitro selection for triplet polymerase activity
Outline: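 Mutant libraries for each subunit of a heterodimeric triplet polymerase ribozyme were made by PCR and then transcribed. Each library underwent one round of in vitro selection in triplicate: annealing with a biotinylated primer, the partner subunit and triplets, frozen incubation at −7 °C, gel excision of extended constructs, streptavidin-bead capture and RT-PCR. Input and output libraries were Illumina-sequenced, and only genotypes with ≥10 input reads and ≥1 read per output were kept. Fitness is the logarithm, base 2, of genotype enrichment over wild-type enrichment, computed from inverse-variance-weighted replicate averages.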

Variant	polymerase ribozyme fitness (log ratio)
GACCAAUCUGCCCUCAGAGCUCGAGAACAUCUUCGGAUGCAGAGGAGGCAGGCUUCGGUGGCGCGAUAGCGCCAACGUCCUCAACCUCCAUUGCAUCCCACCACAUGAUGAUGCCUGAAGAGCCUUUGUUUUUUG	-3.19
GACCAAUCUGCCCUCAGAGCUCGAGAACAUCUUCGGAUGCAGAGGAGGCAGGCUUCGGUGGCGCGAUAGCGCCAACGUCCUCAACCUCCACUGCAUCCCACCACAUGAUGAUGUCUGAAGAGCCUUGGUUUUUUG	-3.62
GACCAAUCUGCCCUCAGAGCUCGAGAACAUCUUCGGAUGCAGAGGAGGCAGGCUUCGGUGGCGCGAUAGCGCCAACGUCCUCAACCUCCAUUGCAACCCACCACAUGAUGAUGCCUGAAGAGCCUUGGUUUUUUG	-2.42
GACCAAUCUGCCCUCAGAGCUCGAGAACAUCUUCGGAUGCAGAGGAGGCAGGCUUCGGUGGCGCGAUAGCGCCAACGUCCUCAACCUCCAAAGCAUCCCACCACAUGAUGAUACCUGAAGAGCCUUGGUUUUUUG	-2.8
GACCAAUCUGCCCUCAGAGCUCGAGAACAUCUUCGGAUGCAGAGGAGGCAGGCUUCGGUGGCGCGAUAGCGCCAACGUCCUCAACCUCCAAAGCAUCCCACCACAUGAUGAUCCCUGAAGAGCCUUGGUUUUUUG	-3.49
GACCAAUCUGCCCUCAGAGCUCGAGAACAUCUUCGGAUGCAGAGGAGGCAGGCUUCGGUGGCGCGAUAGCGCCAACGUCCUCAACCUCCUAUGCAUCCCCCCACAUGAUGAUGCCUGAGGAGCCUUGGUUUUUUG	-2.07
GACCAAUCUGCCCUCAGAGCUCGAGAACAUCUUCGGAUGCAGAGGAGGCAGGCUUCGGUGGCGCGAUAGCGCCAACGUCCUCAACCUCCACUGCAUCCCACCACAUGAUGAAGCCUGAAGAGACUUGCUUUUUUG	-3.53
GACCAAUCUGCCCUCAGAGCUCGAGAACAUCUUCGGAUGCAGAGGAGGCAGGCUUCGGUGGCGCGAUAGCGCCAACGUCCUCAACCUCCAAAGCAUCCCACCACAUGAUGAUGCCUUAAGAGCCUUGGUUUUUUG	-4.95
GACCAAUCUGCCCUCAGAGCUCGAGAACAUCUUCGGAUGCAGAGGAGGCAGGCUUCGGUGGCGCGAUAGCGCCAACGUCCUCAACCUCCUAUGCAUUCCACCAAAUGAGGAUGCCUGAAGAGCAUUGGUUUUUUG	-3.98
GACCAAUCUGCCCUCAGAGCUCGAGAACAUCUUCGGAUGCAGAGGAGGCAGGCUUCGGUGGCGCGAUAGCGCCAACGUCCUCAACCUCCAAAGCAUCCCACCACAUGAUGAUGUCUGAAGAGCCUUGGUUUUUUG	-3.08
GACCAAUCUGCCCUCAGAGCUCGAGAACAUCUUCGGAUGCAGAGGAGGCAGGCUUCGGUGGCGCGAUAGCGCCAACGUCCUCAACCUCCGAGGCAUCCCACCACAUUAUGAUGUCUGAAGAGCCUUUGUUUUUUG	-5.63
GACCAAUCUGCCCUCAGAGCUCGAGAACAUCUUCGGAUGCAGAGGAGGCAGGCUUCGGUGGCGCGAUAGCGCCAACGUCCUCAACCUCCUAUGCACCCCACCACAUGAUGAUGCUUGAAGAGCCUUGGUUUUUUG	-1.64
GACCAAUCUGCCCUCAGAGCUCGAGAACAUCUUCGGAUGCAGAGGAGGCAGGCUUCGGUGGCGCGAUAGCGCCAACGUCCUCAACCUCCAAAGCAUCCCACCACAUGAUGAUGCCUGAAGAGCCUUGGUUUUUUG	-2.8
GACCAAUCUGCCCUCAGAGCUCGAGAACAUCUUCGGAUGCAGAGGAGGCAGGCUUCGGUGGCGCGAUAGCGCCAACGUCCUCAACCUCCUAUGCAUCCCACCACAAGAUGUUGCCUGAAGAGCCUUGGUUUUUUG	-3.8
GACCAAUCUGCCCUCAGAGCUCGAGAACAUCUUCGGAUGCAGAGGAGGCAGGCUUCGGUGGCGCGAUAGCGCCAACGUCCUCAACCUCCAUUGCAUCCCACUACAUGAUGAUGCCUGAAGAGCCUUGGUUUUUUG	-4.75
GACCAAUCUGCCCUCAGAGCUCGAGAACAUCUUCGGAUGCAGAGGAGGCAGGCUUCGGUGGCGCGAUAGCGCCAACGUCCUCAACCUCCACUGCAUCCCACCACAUGAUGAUGCCUGAAGAGCCAUGGUUUUUUG	-2.71
GACCAAUCUGCCCUCAGAGCUCGAGAACAUCUUCGGAUGCAGAGGAGGCAGGCUUCGGUGGCGCGAUAGCGCCAACGUCCUCAACCUCCAGUGCAUCCCCCCACAUGAUGAUGCCUGAAGAGCCUUGGUUUUUUG	-2.5
GACCAAUCUGCCCUCAGAGCUCGAGAACAUCUUCGGAUGCAGAGGAGGCAGGCUUCGGUGGCGCGAUAGCGCCAACGUCCUCAACCUCCAGUGCAUCCCACCACAUGAUGAUUCCUGAAGAGCCUUGGUUUUUUG	-3.39
GACCAAUCUGCCCUCAGAGCUCGAGAACAUCUUCGGAUGCAGAGGAGGCAGGCUUCGGUGGCGCGAUAGCGCCAACGUCCUCAACCUCCAGUGCAUCCCACCACAUGAUGAUGCCUGAAGAGCCUUGGAUUUUUG	-2.34
GACCAAUCUGCCCUCAGAGCUCGAGAACAUCUUCGGAUGCAGAGGAGGCAGGCUUCGGUGGCGCGAUAGCGCCAACGUCCUCAACCUCCAAAGCAUCCCACCACAUGAUGAUGCCUGAAGAGCCUUGUUUUUUUG	-4.84
GACCAAUCUGCCCUCAGAGCUCGAGAACAUCUUCGGAUGCAGAGGAGGCAGGCUUCGGUGGCGCGAUAGCGCCAACGUCCUCAACCUCCUAUGCAUCCCACCACAUGAUGAUUCCUGAAGAGCCUUGGUUUUUUG	-2.89
